Blank lines part the entries; values can stand above or below the binder they belong to.
B1: Dynamin-Related Protein 1 (DRP1), wild type, full length, isoform 2 (enzyme, human, UniProt O00429-3 1-710, looked up)
chain: MEALIPVINKLQDVFNTVGADIIQLPQIVVVGTQSSGKSSVLESLVGRDLLPRGTGIVTRRPLILQLVHVSQEDKRKTTGEENGVEAEEWGKFLHTKNKLYTDFDEIRQEIENETERISGNNKGVSPEPIHLKIFSPNVVNLTLVDLPGMTKVPVGDQPKDIELQIRELILRFISNPNSIILAVTAANTDMATSEALKISREVDPDGRRTLAVITKLDLMDAGTDAMDVLMGRVIPVKLGIIGVVNRSQLDINNKKSVTDSIRDEYAFLQKKYPSLANRNGTKYLARTLNRLLMHHIRDCLPELKTRINVLAAQYQSLLNSYGEPVDDKSATLLQLITKFATEYCNTIEGTAKYIETSELCGGARICYIFHETFGRTLESVDPLGGLNTIDILTAIRNATGPRPALFVPEVSFELLVKRQIKRLEEPSLRCVELVHEEMQRIIQHCSNYSTQELLRFPKLHDAIVEVVTCLLRKRLPVTNEMVHNLVAIELAYINTKHPDFADACGLMNNNIEEQRRNRLARELPSAVSRDKLIQDSRRETKNVASGGGGVGDGVQEPTTGNWRGMLKTSKAEELLAEEKSKPIPIMPASPQKGHAVNLLDVPVPVARKLSAREQRDCEVIERLIKSYFLIVRKNIQDSVPKAVMHFLVNHVKDTLQSELVGQLYKSSLLDDLLTESEDMAQRRKEAADMLKALQGASQIIAEIRETHLW

Experiments:
[1] = molecular target: the molecule itself; assay: cryo-EM structure
[2] = molecular target: the molecule itself; assay: SEC
[3] = molecular target: B1; assay: cryo-EM structure

Binder: B1
- binding result [1]: binds

B2: DRP1_(G362D), full length, disease-associated mutant (enzyme, human, UniProt O00429-3 1-710, looked up)
chain: MEALIPVINKLQDVFNTVGADIIQLPQIVVVGTQSSGKSSVLESLVGRDLLPRGTGIVTRRPLILQLVHVSQEDKRKTTGEENGVEAEEWGKFLHTKNKLYTDFDEIRQEIENETERISGNNKGVSPEPIHLKIFSPNVVNLTLVDLPGMTKVPVGDQPKDIELQIRELILRFISNPNSIILAVTAANTDMATSEALKISREVDPDGRRTLAVITKLDLMDAGTDAMDVLMGRVIPVKLGIIGVVNRSQLDINNKKSVTDSIRDEYAFLQKKYPSLANRNGTKYLARTLNRLLMHHIRDCLPELKTRINVLAAQYQSLLNSYGEPVDDKSATLLQLITKFATEYCNTIEGTAKYIETSELCDGARICYIFHETFGRTLESVDPLGGLNTIDILTAIRNATGPRPALFVPEVSFELLVKRQIKRLEEPSLRCVELVHEEMQRIIQHCSNYSTQELLRFPKLHDAIVEVVTCLLRKRLPVTNEMVHNLVAIELAYINTKHPDFADACGLMNNNIEEQRRNRLARELPSAVSRDKLIQDSRRETKNVASGGGGVGDGVQEPTTGNWRGMLKTSKAEELLAEEKSKPIPIMPASPQKGHAVNLLDVPVPVARKLSAREQRDCEVIERLIKSYFLIVRKNIQDSVPKAVMHFLVNHVKDTLQSELVGQLYKSSLLDDLLTESEDMAQRRKEAADMLKALQGASQIIAEIRETHLW
- stoichiometry N [2]: 2

- binding result [3]: binds
B3: Mitochondrial Dynamics 49, MID49_(126-454) (domain or fragment, human, UniProt Q96C03-1 126-454, looked up)
chain: TLQERLLAFERDRVTIPAAQVALAKQLAGDIALELQAYFRSKFPELPFGAFVPGGPLYDGLQAGAADHVRLLVPLVLEPGLWSLVPGVDTVARDPRCWAVRRTQLEFCPRGSSPWDRFLVGGYLSSRVLLELLRKALAASVNWPAIGSLLGCLIRPSMASEELLLEVQHERLELTVAVLVAVPGVDADDRLLLAWPLEGLAGNLWLQDLYPVEAARLRALDDHDAGTRRRLLLLLCAVCRGCSALGQLGRGHLTQVVLRLGEDNVDWTEEALGERFLQALELLIGSLEQASLPCHFNPSVNLFSSLREEEIDDIGYALYSGLQEPEGLL

Reference: paper doi:10.1101/172809 (bioRxiv, 2017)
